B1: Hairpin Ribozyme (parent)
chain: GUCCUCUUUCACGUGCGCGUGAAAGAGAGAAGUGAACCAGAGAAACACACGUUGUGGUAUAUUACCUGGUA

Variants of: B1
Assay: self-cleavage, relative activity (ratio to wild type); higher = more cleavage; co-transcriptional
G13C A47U showed a self-cleavage of 0.109. For G13C A47C, the self-cleavage was 0.205. G13C A47G showed a self-cleavage of 0.21. G13U C46A gave a self-cleavage of 0.193. With G13U C38G the self-cleavage was 0.136. U14A A59G showed a self-cleavage of 0.0952. With G13C U53G the self-cleavage was 0.245. Work on G13C G29U yielded a self-cleavage of 0.0913. With U14G A28G the self-cleavage was 1.15. U14G A28C showed a self-cleavage of 0.589. In the case of G13C C50U, the self-cleavage is reported as 0.281. Work on G13C C50A yielded a self-cleavage of 0.137. Variant U14A G68U has a self-cleavage of 0.307. In the case of U14A G68A, the self-cleavage is reported as 0.173. Variant G13A U67G has a self-cleavage of 0.18. In the case of G13U G17U, the self-cleavage is reported as 0.712. Variant U14A C46U has a self-cleavage of 0.126. Variant G13U A49G has a self-cleavage of 0.483. For G15A A24G, the self-cleavage was 0.963. For G15A A24C, the self-cleavage was 0.899. Work on U14A G51C yielded a self-cleavage of 0.89. Work on U14A G51A yielded a self-cleavage of 0.957. For G13U C16G, the self-cleavage was 0.655. In the case of U14C C50A, the self-cleavage is reported as 0.0893. For U14C G56C, the self-cleavage was 0.163. For U14C G56U, the self-cleavage was 0.126. Variant U14G A61U has a self-cleavage of 0.2. With U14G A61G the self-cleavage was 0.0735. Variant U14G A61C has a self-cleavage of 0.257. Variant U14A G69C has a self-cleavage of 0.337. U14A G69U showed a self-cleavage of 0.205. In the case of U14C G51A, the self-cleavage is reported as 0.854. Variant U14C G51U has a self-cleavage of 1.07. In the case of G13C C37G, the self-cleavage is reported as 0.183. Work on U14A U20C yielded a self-cleavage of 1. U14A U20G showed a self-cleavage of 0.663. For U14G U63A, the self-cleavage was 0.217. U14G A59C gave a self-cleavage of 0.0613. For U14G A59U, the self-cleavage was 0.183. With G13U U63G the self-cleavage was 0.257. For U14C A39U, the self-cleavage was 0.387. U14G G40C gave a self-cleavage of 0.111. For G13C A23U, the self-cleavage was 0.491. Variant G13C A23G has a self-cleavage of 0.373. G13C A23C gave a self-cleavage of 0.364. G15A A41U gave a self-cleavage of 1.26. Variant U14G U20A has a self-cleavage of 0.866. For U14G U20C, the self-cleavage was 0.992. With G13U U62A the self-cleavage was 0.179. U14A A22U showed a self-cleavage of 0.715. U14A A22G gave a self-cleavage of 0.762. Work on G13U U52G yielded a self-cleavage of 0.623. Work on U14G A71U yielded a self-cleavage of 0.678. With G13C A26U the self-cleavage was 0.406. With G15A A26C the self-cleavage was 0.93. Work on G13C A71U yielded a self-cleavage of 0.41. For G13C G57U, the self-cleavage was 0.164. For U14A C66G, the self-cleavage was 0.143. In the case of U14A G17A, the self-cleavage is reported as 1.03. In the case of U14A G17U, the self-cleavage is reported as 0.96. With U14C G32U the self-cleavage was 0.138. Variant U14C G32C has a self-cleavage of 0.244. U14C A23C showed a self-cleavage of 0.693. For U14C U60C, the self-cleavage was 1.13. G13C A35G showed a self-cleavage of 0.801. For G13C A35U, the self-cleavage was 0.552. Variant G13U C37A has a self-cleavage of 0.249. G13U C37U showed a self-cleavage of 0.443. G13U C37G showed a self-cleavage of 0.384. U14A C50A showed a self-cleavage of 0.13. In the case of U14A C50U, the self-cleavage is reported as 0.397. With G13A U70C the self-cleavage was 0.615. Variant U14A A24U has a self-cleavage of 0.644. In the case of U14A A43U, the self-cleavage is reported as 0.0759. In the case of U14G G51C, the self-cleavage is reported as 0.734. In the case of U14A U53G, the self-cleavage is reported as 0.899. Variant U14A U53C has a self-cleavage of 1.07. U14G U62C gave a self-cleavage of 0.213. With U14G C18U the self-cleavage was 0.7. In the case of U14A A31U, the self-cleavage is reported as 0.124. In the case of G13C A64U, the self-cleavage is reported as 0.128. G13C A64G showed a self-cleavage of 0.448. For U14A A36U, the self-cleavage was 0.582. For U14A A36C, the self-cleavage was 0.502. U14G A36G showed a self-cleavage of 1.11. U14A C38A showed a self-cleavage of 0.171. G15A C37G showed a self-cleavage of 0.312. Variant G15A C37A has a self-cleavage of 0.388. Work on U14C U70G yielded a self-cleavage of 0.679. U14C A31G gave a self-cleavage of 0.737. In the case of G15A A28G, the self-cleavage is reported as 0.978. For G15A A28C, the self-cleavage was 0.586. In the case of G13U U70A, the self-cleavage is reported as 0.771. In the case of U14G A39U, the self-cleavage is reported as 0.285. Work on G15A A45G yielded a self-cleavage of 0.17. Variant G13U U20A has a self-cleavage of 0.73. In the case of G13U U20C, the self-cleavage is reported as 1.03. Work on G13C A24U yielded a self-cleavage of 0.735. Variant G13C G56A has a self-cleavage of 0.137. Work on G13A U63G yielded a self-cleavage of 0.0786. Variant G13U A61U has a self-cleavage of 0.181. Variant U14G G57U has a self-cleavage of 0.234. In the case of G13U C50U, the self-cleavage is reported as 0.268. Work on G13C A31C yielded a self-cleavage of 0.227. G13C A31G showed a self-cleavage of 0.515. U14A A30C showed a self-cleavage of 0.222. U14A A30U showed a self-cleavage of 0.156. In the case of U14A A30G, the self-cleavage is reported as 0.165. U14C A64C showed a self-cleavage of 0.257. U14C A64U showed a self-cleavage of 0.199. In the case of U14G G56C, the self-cleavage is reported as 0.164. Variant G13U A43G has a self-cleavage of 0.186. For G13U A43U, the self-cleavage was 0.127. With G13C A22G the self-cleavage was 0.496. U14G C65U showed a self-cleavage of 0.316. In the case of G13U G19A, the self-cleavage is reported as 0.73. In the case of U14C A30C, the self-cleavage is reported as 0.263. In the case of U14G G69C, the self-cleavage is reported as 0.238. In the case of U14C C38G, the self-cleavage is reported as 0.246. U14A U63A gave a self-cleavage of 0.162. In the case of U14G G25U, the self-cleavage is reported as 0.492. Work on U14G G25C yielded a self-cleavage of 0.312. Work on G13U A36C yielded a self-cleavage of 0.537. U14G A64C showed a self-cleavage of 0.27. G13U A44C showed a self-cleavage of 0.0986. In the case of G13U A44G, the self-cleavage is reported as 0.199. G13U A45U showed a self-cleavage of 0.136. For U14G A41G, the self-cleavage was 0.589. For U14C G25A, the self-cleavage was 0.734. Work on U14C G25C yielded a self-cleavage of 0.728. Work on G15A A35G yielded a self-cleavage of 0.934. G15A A59U gave a self-cleavage of 0.213. G15A A59C showed a self-cleavage of 0.182. For U14C A26G, the self-cleavage was 0.919. In the case of U14C A26U, the self-cleavage is reported as 0.418. In the case of U14C A26C, the self-cleavage is reported as 0.727. Work on U14A G19A yielded a self-cleavage of 0.756. For U14A G57U, the self-cleavage was 0.195. Variant U14A G57C has a self-cleavage of 0.132. G15A A31G gave a self-cleavage of 0.586. For G15A A31U, the self-cleavage was 0.133. U14G G32U showed a self-cleavage of 0.107. For U14G G32A, the self-cleavage was 0.191. U14A A49C showed a self-cleavage of 0.117. Variant U14A A49G has a self-cleavage of 0.554. G13U G32A showed a self-cleavage of 0.183. Work on U14A U62G yielded a self-cleavage of 0.125. U14A U62C showed a self-cleavage of 0.257. In the case of G13C U60G, the self-cleavage is reported as 0.479. For G13U G68U, the self-cleavage was 0.243. Work on U14A A61C yielded a self-cleavage of 0.331. For U14G G17A, the self-cleavage was 0.854. For U14G A24G, the self-cleavage was 0.747. U14G A30U gave a self-cleavage of 0.175. With G13C the self-cleavage was 0.681. In the case of G13U, the self-cleavage is reported as 0.763. U14G U67A showed a self-cleavage of 0.186. U14G U67C gave a self-cleavage of 0.145. With U14C G29A the self-cleavage was 0.0903. With U14A G27A the self-cleavage was 0.39. U14A G27U showed a self-cleavage of 0.192. In the case of U14A G27C, the self-cleavage is reported as 0.196. With G15A A43G the self-cleavage was 0.155. In the case of G15A A43U, the self-cleavage is reported as 0.178. Variant U14G U53A has a self-cleavage of 0.835. U14G G34C gave a self-cleavage of 1.52. Variant U14G A23G has a self-cleavage of 0.703.

Source: the RNAGym collection of RNA variant scans (doi:10.7554/elife.80360)
